According to US20230287092A1 (AstraZeneca / MedImmune, published 2023):

Biological target: cynomolgus monkey Aβ42 (cynomolgus monkey, UniProt P53601 672-713)
Test: cell-based or functional assay

Sequence of cynomolgus monkey Aβ42 (P53601 672-713 limits assumed): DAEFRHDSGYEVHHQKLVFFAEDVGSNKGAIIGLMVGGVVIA

B1: MEDI1814 (antibody, V domains shown)
VH: EVQLLESGGGLVQPGGSLRLSCAASMGNFNYQTMWWVRQAPGKGLEWVSVIGKTNENIAYADSVKGRFTISRDNSKNTLYLQMNSLRAEDTAVYYCAREWMDHSRPYYYYGMDVWGQGTLVTVSS
VL: SYELTQPPSVSVSPGQTASITCSGHNLEDKFASWYQQKPGQSPVLVIYRDDKRPSGIPERFSASNSGHTATLTISGTQAMDEADYYCSSQDTVTRVFGGGTKLTVL
increase in total CSF Aβ42, 14 weekly doses, cynomolgus monkeys: ≤ 7.7 fold | increase in total plasma Aβ42 against control, 14 weekly doses (10 or 100 mg/kg IV, 75 mg/kg SC), cynomolgus monkeys: ≤ 2060 fold
